Target: WDR5_(WD40), as used in the ITC (human)
Test: ITC

Kd: 20.2 µM
Binder: ARTKQTARKSTGGKA (modifications not checked) [unmodified H3 tail peptide of the ITC (H3K4unmodQ5unmod)]
